This note sets out measurements from the supplement of paper PMC9170038.

Data set [1] relates to MS2 coat protein. Description: apparent KD of MS2 coat protein, switch ON state; designed switch direction (-1 OFF switch, 1 ON switch): -1; higher = weaker reporter binding. The conditions noted are these: FMN input: 0 or 200 uM; Eterna round: R93 (includes R88 designs). A digest of the protocol: (§1)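 With or without constant ligand, designed RNA switches in 100 mM Tris-HCl pH 7.5, 80 mM KCl and 4 mM MgCl2 were titrated with SNAP-549-labelled MS2 coat protein. Concentrations went up in twofold steps from 0.7 or 1.5 nM to 3 µM. The switches had been transcribed on-chip from Illumina sequencing clusters, and apparent KD is the per-design median of normalised cluster binding-curve fits.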

Data set [2] deals with MS2 coat protein. Description: apparent KD of MS2 coat protein, switch OFF state (with FMN for OFF switches, without FMN for ON switches); designed switch direction (-1 OFF switch, 1 ON switch): -1; higher = weaker reporter binding. The conditions noted are these: FMN input: 0 or 200 uM; Eterna round: R93 (includes R88 designs). A digest of the protocol: as §1

Regarding “AAAAAGGCAGGAUAUACAUGAGGAUCACCCAUGUGCAAAAAAAAAAAAAAAAAAACAUGUAGAAGGGCCGAAAA [Skynet (1?)]”, the “apparent KD of MS2 coat protein” value in the data set with MS2 coat protein [1] worked out at 45.2 nM; in the data set with MS2 coat protein [2] it was 86.3 nM.
Taken in the same sequence, the figures for “AAAAAGGCAGGAUAUACGAGUCAAAGAAAAGACAAAAGGAGACAUGAGGAUCACCCAUGUAGAAGGGCCAAAAA [Fiskers exclusion D2 62% 5]” were 36.8 nM and 48.8 nM.
Taken in the same sequence, the figures for “AAAAAGGGAGGAUAUACAACACAGACAGAACAACAAACACAACAUGAGGAUCACCCAUGUAGAAGGCCCAAAAA [Default title]” were 28.2 nM and 35.4 nM.
As to “AAAAAGGGAGGAUAUACAGGAGGUCAAAAAAAAAAAAAAAAACAUGAGGAUCACCCAUGUAGAAGGCUUAAAAA [Ecls2-III]”, the “apparent KD of MS2 coat protein” value in the data set on MS2 coat protein [1] was determined as 26.7 nM; in the data set with MS2 coat protein [2], 27.3 nM.
Taken in the same sequence, the figures for “AAAAAGGGAGGAUAUACAUGAGGAUCACCCAUGUAAAAAAAAAAAAAAGGGAGGGAAGGUAGAAGGCCCAAAAA [Excls3-II]” were 39.6 nM and 52.5 nM.
Taken in the same sequence, the figures for “AAAAAGGGAGGAUAUACAUGAGGAUCACCCAUGUAGCAGACGAAAAAGAGUCUGUAAUGUAGAAGGCCCAAAAA [65%, Moding Exclusion3-cac2, 4]” were 16.2 nM and 32.2 nM.
Taken in the same sequence, the figures for “AAAAAGGGAGGAUAUACGAAACAGGGAAACCUGAAAAAGGGACAUGAGGAUCACCCAUGUAGAAGGCCCAAGAA [Clint Eastwood 64% 5]” were 40.2 nM and 268 nM.
For the sequence “AAAAAGGGAGGAUAUGCAAAGGGAAAGGGAAAGGGAAAGGGACAUGAGGAUCACCCAUGUAGAAGGCUCAAAAA [scarecrow2]”, the “apparent KD of MS2 coat protein” value with MS2 coat protein [1] was 56.1 nM; with MS2 coat protein [2], 34 nM.
Taken in the same sequence, the figures for “AAAAAGGUAGGAUAUGCUAAAUAACAUGUUGAAUAAAUAAAACAUGAGGAUCACCCAUGUAGAAGGACCAAAAA [Ex 2 Tesla 2]” were 54 nM and 58.1 nM.
Taken in the same sequence, the figures for “AAAAAGUAAGGAUAUACAAAAGAAAACACAAAAAAAAAAAAACAUGAGGAUCACCCAUGUAGAAGGUACAAAAA [Ex2 Malc#1]” were 27.3 nM and 19.3 nM.
Taken in the same sequence, the figures for “AAAAAGUAAGGAUAUACAAGAGAAAACACAAAAAAAAAAAAACAUGAGGAUCACCCAUGUAGAAGGUACAAAAA [Diamond 82]” were 27.5 nM and 24.6 nM.
“AAAAAGUAAGGAUAUAGCAAAGGUCACGAAAGUGACAAAGGCUAGAAGGUACAUGAGGAUCACCCAUGUCCAAG [Mat - Exclusion 4 - Eli mod - D100]”: the “apparent KD of MS2 coat protein” value with MS2 coat protein [1] worked out at 30.8 nM; in the data set with MS2 coat protein [2], 16.6 nM.
Taken in the same sequence, the figures for “AAAAAGUCAGGAUAUACAAAAGUGCGAAAGCACAAAAUGGGACAUGAGGAUCACCCAUGUAGAAGGGACAAGAA [JL In the Red 01 (Mod)]” were 148 nM and 472 nM.
Taken in the same sequence, the figures for “AAAAAGUCAGGAUAUACAUGAGGAUCACCCAUGUGAAAGAACGAUUAACGAAAAGCAAGUAGAAGGGACAAAAA [Ruby 79]” were 22.1 nM and 23.7 nM.
Taken in the same sequence, the figures for “AAAAAGUCAGGAUAUACAUGAGGAUCACCCAUGUGAAAGAACGAUUAACGACCAGCAAGUAGAAGGGACAAAAA [Ruby 80]” were 22 nM and 20.8 nM.
As to “AAAAAGUCAGGAUAUACGAAAGUGCGAAAGCACAAAAAGGGACAUGAGGAUCACCCAUGUAGAAGGGACAAGAA [Married to this design, 61% 3]”, the “apparent KD of MS2 coat protein” value in the data set on MS2 coat protein [1] worked out at 45.2 nM; in the data set on MS2 coat protein [2] it was 50.4 nM.
Taken in the same sequence, the figures for “AAAAAGUCAGGAUAUGUAGCAAAAAGUGAUCCAAAAAAGCUACAGAAGGGACAUGAGGAUCACCCAUGUAAAAA [Ex4: 931]” were 86.5 nM and 98.2 nM.
